Results: US20220411487A1 (Regeneron, published 2022)

T1: extracellular domain of cynomolgous monkey TMPRSS6 (V673M) with N-terminal 8xHistidine, CHO conditioned media (cynomolgous monkey, UniProt Q8IU80 77-811 (human entry))
T1 chain: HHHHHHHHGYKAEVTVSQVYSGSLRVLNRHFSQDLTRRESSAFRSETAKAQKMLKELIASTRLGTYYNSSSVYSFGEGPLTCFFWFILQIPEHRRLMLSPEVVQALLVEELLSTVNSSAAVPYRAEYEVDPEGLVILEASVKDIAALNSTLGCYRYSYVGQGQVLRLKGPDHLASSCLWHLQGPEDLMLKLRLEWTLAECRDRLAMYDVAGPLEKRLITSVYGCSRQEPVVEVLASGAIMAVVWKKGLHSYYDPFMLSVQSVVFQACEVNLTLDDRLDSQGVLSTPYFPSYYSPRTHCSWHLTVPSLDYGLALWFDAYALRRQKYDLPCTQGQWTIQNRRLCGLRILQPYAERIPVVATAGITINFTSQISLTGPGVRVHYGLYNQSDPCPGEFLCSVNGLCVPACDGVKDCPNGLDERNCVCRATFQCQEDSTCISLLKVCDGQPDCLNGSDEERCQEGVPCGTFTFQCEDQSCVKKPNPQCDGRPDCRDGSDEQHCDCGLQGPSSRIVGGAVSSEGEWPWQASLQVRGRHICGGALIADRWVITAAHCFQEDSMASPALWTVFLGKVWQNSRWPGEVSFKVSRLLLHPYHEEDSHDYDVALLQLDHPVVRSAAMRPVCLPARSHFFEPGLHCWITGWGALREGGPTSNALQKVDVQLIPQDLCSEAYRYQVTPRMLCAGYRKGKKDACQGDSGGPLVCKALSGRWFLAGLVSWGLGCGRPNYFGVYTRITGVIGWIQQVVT

T2: full length cynomolgous monkey TMPRSS6 on HEK293 cells (HEK293/mfTMPRSS6) (cynomolgous monkey/Macaca fascicularis, UniProt Q8IU80 10-811 (human entry))
T2 chain: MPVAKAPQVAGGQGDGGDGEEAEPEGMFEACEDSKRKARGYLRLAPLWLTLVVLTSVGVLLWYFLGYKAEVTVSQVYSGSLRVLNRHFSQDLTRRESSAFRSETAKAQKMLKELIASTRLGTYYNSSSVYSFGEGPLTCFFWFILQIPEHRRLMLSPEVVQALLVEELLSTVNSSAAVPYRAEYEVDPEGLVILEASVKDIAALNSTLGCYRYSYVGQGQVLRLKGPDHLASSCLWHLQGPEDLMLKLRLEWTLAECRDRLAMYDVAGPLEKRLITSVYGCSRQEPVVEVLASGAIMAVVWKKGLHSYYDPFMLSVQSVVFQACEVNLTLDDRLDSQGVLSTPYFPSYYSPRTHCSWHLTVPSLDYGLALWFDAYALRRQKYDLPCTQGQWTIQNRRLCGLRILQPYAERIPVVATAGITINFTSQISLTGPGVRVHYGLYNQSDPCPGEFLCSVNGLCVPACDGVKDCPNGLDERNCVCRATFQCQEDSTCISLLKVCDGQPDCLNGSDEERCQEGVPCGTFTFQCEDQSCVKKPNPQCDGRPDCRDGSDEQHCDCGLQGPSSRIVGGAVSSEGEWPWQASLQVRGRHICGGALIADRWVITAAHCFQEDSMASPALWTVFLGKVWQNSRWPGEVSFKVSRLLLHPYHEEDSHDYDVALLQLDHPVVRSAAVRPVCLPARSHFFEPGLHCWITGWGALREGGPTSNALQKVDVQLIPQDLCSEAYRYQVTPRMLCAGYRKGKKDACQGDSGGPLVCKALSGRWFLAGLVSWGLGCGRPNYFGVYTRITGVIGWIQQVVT

B1: REGN7977 (antibody, V domains shown)
VH: EVQLVESGGGLVKPGGSLRVSCAASGVTFSNVWMSWVRQVPGKGLEWVGRIKSKTDGGTTDYAAPVKGRFTISKDDSKNTLFLQMNSLKTEDTAVYYCTTETGDFWSGYYPRFQHWGQGTLVTVSS
VL: DIQMTQSPSSLSASVGDRVTITCRASQYISTYLNWYQQKPGKAPSLLIYAASSLQSGVPSRFSGSGSGTDFTLTISSLQPEDFASYSCQQSYSTPPYTFGQGTKLEIKR
notes: fully human; human IgG4 Fc with hinge S108P; also called mAb41465
B2: REGN8023 (antibody, human IgG4 S228P, kappa, V domains shown)
VH: EVQLVESGGGLVKPGGSLRISCAASGFIFVDYAMHWVRQAPGKGLEWVSGISWNSGSIGYADSVKGRFTISRDNAKKSLYLQMSGLRPEDTALYYCVKSGFYYVRSYFDNWGQGTLVTVSS
VL: DIVMTQSPLSLPVTPGEPASISCRSSQSLLDSDDGNTYLDWYLRKPGQSPQLLIYTLSYRASGVPDRFSGSGSGTDFTLKISRVEADDVGVYYCMQRIEFPLTFGGGTKVEIKR
notes: fully human; human IgG4 Fc with hinge S108P; also called mAb37699
B3: REGN7969 (antibody, human IgG4 S228P, kappa, V domains shown)
VH: QVQLVESGGGVVQPGRSLRLSCAASGFTFNNYGMHWVRQAPGKGLEWVAIISYDGSNEYYSDSVKGRFTISRDNSKNTLYLQMNSLRAEDTAVYYCARDQDYGGNLFHYWGQGTLVTVSS
VL: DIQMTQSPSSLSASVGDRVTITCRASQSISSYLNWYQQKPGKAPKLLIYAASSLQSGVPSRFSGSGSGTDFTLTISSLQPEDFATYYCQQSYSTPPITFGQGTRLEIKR
notes: fully human; human IgG4 Fc with hinge S108P; also called mAb37746
B4: REGN7971 (antibody, human IgG4 S228P, kappa, V domains shown)
VH: QVQLVESGGGVVQPGRSLRLSCAASGFTFSTYGMHWVRQAPGKGLEWVAIISYDGSNDYYLDSVKGRFTISRDNSKNTLYLQMNNLRAEDTAVYYCAKDQGYGGNLFASWGQGTLVTVSS
VL: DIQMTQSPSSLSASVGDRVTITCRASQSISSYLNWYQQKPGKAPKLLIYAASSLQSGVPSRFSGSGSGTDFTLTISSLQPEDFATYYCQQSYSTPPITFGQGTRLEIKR
notes: fully human; human IgG4 Fc with hinge S108P; also called mAb37763
B5: REGN7999 (antibody, human IgG4 S228P, kappa, V domains shown)
VH: EVQLVESGGGLVQPGGSLRLSCAASGFTFSSYAMTWVRQAPGKGLEWVSAISGSDTSTYYADSVKGRFTISRDNSKNTLFLQMNSLRAEDTAVYYCAKHQDYDFSYYYSAMDVWGQGTTVTVSS
VL: DIQMTQSPSSLSASVGDRVIITCRASQDFNSWLAWYQQKPGKAPKLLIYAASSLQSGVPSRFSGSGSGTDFTLTISSLQPEDFATYYCQQTDSFPFTFGPGTKVDIKR
notes: fully human; human IgG4 Fc with hinge S108P; also called mAb41450
B6: REGN7974 (antibody, human IgG4 S228P, kappa, V domains shown)
VH: EVQLVESGGGLVQPGRSLRLSCIASGFNFGDYGMSWVRQAPGKGLEWVGFIRSKAYGGTTEYAASVKGRFTISRDDSKSIAYLQMNSLKTEDAAMYYCSRDYYDILTGYYGDYWGQGTLVTVSS
VL: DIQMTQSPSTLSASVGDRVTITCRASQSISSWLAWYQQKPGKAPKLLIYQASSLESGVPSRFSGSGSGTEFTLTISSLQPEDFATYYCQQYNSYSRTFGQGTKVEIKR
notes: fully human; human IgG4 Fc with hinge S108P; also called mAb41422

Key:
[1] = target: extracellular domain of Human TMPRSS6 with N-terminal 8xHistidine, CHO conditioned media (human, UniProt Q8IU80 68-802, limits assumed); assay: cell-based or functional assay
[2] = target: T1, extracellular domain of cynomolgous …; assay: cell-based or functional assay
[3] = target: T2, full length cynomolgous monkey TMPRSS6 …; assay: cell-based or functional assay
hTMPRSS6_S762A-MMH = target: T3, hTMPRSS6_S762A-MMH (human, UniProt Q8IU80 77-811); assay: SPR, mAb captured via anti-hFc, 25 C
T3 construct: also called REGN5330; human TMPRSS6_S762A-MMH
Method: The equilibrium dissociation constant (KD) for TMPRSS6 binding to different TMPRSS6 monoclonal antibodies (mAbs) was determined using a real-time surface plasmon resonance biosensor using a Biacore 4000 instrument. All binding studies were performed in 10 mM HEPES, 150 mM NaCl, 3 mM EDTA, and 0.05% v/v Surfactant Tween-20, pH 7.4 (HBS-ET) running buffer at 25° C. and 37° C. The Biacore CM5 sensor chip surface was first derivatized by amine coupling with a human Fc specific mouse mAb to capture different TMPRSS6 mAbs. […] Different concentrations (100 nM to 3.7 nM, 3-fold serial dilution) of the TMPRSS6 reagent proteins prepared in HBS-EP running buffer were injected over the TMPRSS6 mAb captured surface for 150 seconds at a flow rate of 30 μL/min and their dissociation in HBS-ET running buffer was monitored for 10 minutes. At the end of each cycle, the TMPRSS6 mAb captured surface was regenerated using a 12 second injection of 20 mM phosphoric acid.
The association rate (kₐ) and dissociation rate (kd) were determined by fitting the real-time binding sensorgrams to a 1:1 binding model with mass transport limitation using Scrubber 2.0 (BioLogic Software) curve-fitting software. Binding dissociation equilibrium constant (KD) and dissociative half-life (t½) were calculated from the kinetic rates as: […]

Chain of extracellular domain of Human TMPRSS6 with N-terminal 8xHistidine, CHO conditioned media (Q8IU80 other isoform, or with tags, fused parts or gaps limits assumed): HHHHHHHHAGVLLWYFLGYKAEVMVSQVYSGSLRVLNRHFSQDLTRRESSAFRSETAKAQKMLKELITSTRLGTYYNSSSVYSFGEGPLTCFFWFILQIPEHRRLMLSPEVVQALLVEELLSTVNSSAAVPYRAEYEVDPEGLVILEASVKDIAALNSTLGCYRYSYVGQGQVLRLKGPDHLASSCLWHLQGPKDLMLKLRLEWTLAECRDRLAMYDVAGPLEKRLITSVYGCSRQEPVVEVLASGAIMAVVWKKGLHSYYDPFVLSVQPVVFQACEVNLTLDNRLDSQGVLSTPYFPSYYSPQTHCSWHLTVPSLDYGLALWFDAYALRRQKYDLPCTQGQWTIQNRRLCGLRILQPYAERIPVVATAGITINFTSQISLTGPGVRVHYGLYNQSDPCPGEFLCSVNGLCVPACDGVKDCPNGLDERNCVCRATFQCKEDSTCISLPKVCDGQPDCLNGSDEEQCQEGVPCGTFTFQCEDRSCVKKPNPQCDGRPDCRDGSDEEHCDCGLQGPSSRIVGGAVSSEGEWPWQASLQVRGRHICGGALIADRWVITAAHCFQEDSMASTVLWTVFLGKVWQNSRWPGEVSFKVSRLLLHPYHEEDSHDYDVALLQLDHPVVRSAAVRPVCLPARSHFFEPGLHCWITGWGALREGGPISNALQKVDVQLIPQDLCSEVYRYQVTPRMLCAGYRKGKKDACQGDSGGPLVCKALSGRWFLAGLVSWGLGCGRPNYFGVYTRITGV

| Binder | % inhibition of enzymatic activity, CM bioassay [1] [%] | IC50, CM bioassay [1] [nM] | % inhibition of enzymatic activity, CM bioassay [2] [%] | IC50, CM bioassay [2] [nM] | % inhibition, HEK293 bioassay, 30 min pre-incubation 25 C [3] [%] | IC50, HEK293 bioassay, 30 min pre-incubation 25 C [3] [nM] | 100 nM Ag Bound (hTMPRSS6_S762A-MMH) [RU] | Kd (hTMPRSS6_S762A-MMH) [nM] | koff (hTMPRSS6_S762A-MMH) [s⁻¹] | kon (hTMPRSS6_S762A-MMH) [M⁻¹ s⁻¹] | t½ (hTMPRSS6_S762A-MMH) [h] |
| --- | --- | --- | --- | --- | --- | --- | --- | --- | --- | --- | --- |
| B1 | 94 | 23 | 89 | 50 | 87 | 8.1 | 159 | 1.69 | 0.000368 | 218000 | 0.517 |
| B2 | 98 | 0.71 | 98 | 0.74 | 94 | 0.66 | 205 | 0.128 | 8.6e-05 | 671000 | 2.23 |
| B3 | 71 | > 10 | 66 | > 50 | 87 | 8.8 | 89 | 0.45 | 0.000182 | 404000 | 1.07 |
| B4 | 65 | > 10 | 68 | > 50 | 87 | 3.1 | 103 | 0.322 | 0.000147 | 455000 | 1.32 |
| B5 | 98 | 3 | 98 | 1.7 | 90 | 6.5 | 176 | 0.243 | 6.49e-05 | 267000 | 2.97 |
| B6 | 85 | 400 | 69 | > 50 | 81 | 30 | 191 | 2.63 | 0.00068 | 259000 | 0.283 |
